# ± gives the standard deviation of the averaged measurements.
# Experiment: total protein half-life in vivo (active degradation + dilution); higher = more stable protein
# [1] = E. coli NCM3722 delta-clpP delta-lon delta-hslV, growth: N-lim chemostat, doubling time 6 h
# [2] = E. coli NCM3722 delta-clpP, growth: N-lim chemostat, doubling time 6 h
# [3] = E. coli NCM3722 delta-hslV, growth: N-lim chemostat, doubling time 6 h
# [4] = E. coli NCM3722 delta-lon, growth: N-lim chemostat, doubling time 6 h
# [5] = E. coli NCM3722 delta-smpB, growth: N-lim chemostat, doubling time 6 h
# [6] = wild type E. coli NCM3722, growth: C-lim chemostat, doubling time 6 h
# [7] = wild type E. coli NCM3722, growth: C-lim chemostat, doubling time 12 h
# [8] = wild type E. coli NCM3722, growth: N-lim chemostat, doubling time 6 h
# [9] = wild type E. coli NCM3722, growth: N-lim chemostat, doubling time 12 h
# [10] = wild type E. coli NCM3722, growth: P-lim chemostat, doubling time 12 h
# [11] = wild type E. coli NCM3722, growth: C-lim chemostat, doubling time 3 h
# [12] = wild type E. coli NCM3722, growth: P-lim chemostat, doubling time 6 h
Sequence,total protein half-life in vivo [1] [h],total protein half-life in vivo [2] [h],total protein half-life in vivo [3] [h],total protein half-life in vivo [4] [h],total protein half-life in vivo [5] [h],total protein half-life in vivo [6] [h],total protein half-life in vivo [7] [h],total protein half-life in vivo [8] [h],total protein half-life in vivo [9] [h],total protein half-life in vivo [10] [h],total protein half-life in vivo [11] [h],total protein half-life in vivo [12] [h]
MIDDDGYRPNVGIVICNRQGQVMWARRFGQHSWQFPQGGINPGESAEQAMYRELFEEVGLSRKDVRILASTRNWLRYKLPKRLVRWDTKPVCIGQKQKWFLLQLVSGDAEINMQTSSTPEFDGWRWVSYWYPVRQVVSFKRDVYRRVMKEFASVVMSLQENTPKPQNASAYRRKRG [P0A776],5.67 ± 0.079,5.62 ± 0.48,6.81 ± 1.3,6.4 ± 0.12,5.02 ± 0.73,5.48 ± 0.44,9.01 ± 3.2,4.84 ± 0.076,11.9 ± 3.9,9.25 ± 0.6,–,–
MIDLYFAPTPNGHKITLFLEEAELDYRLIKVDLGKGGQFRPEFLRISPNNKIPAIVDHSPADGGEPLSLFESGAILLYLAEKTGLFLSHETRERAATLQWLFWQVGGLGPMLGQNHHFNHAAPQTIPYAIERYQVETQRLYHVLNKRLENSPWLGGENYSIADIACWPWVNAWTRQRIDLAMYPAVKNWHERIRSRPATGQALLKAQLGDERSDS,–,4.37 ± 1.4,4.61 ± 1.6,4.28 ± 0.48,2.94 ± 1.1,4.84 ± 0.4,9.73 ± 0.75,4.02 ± 1.1,6.01 ± 0.55,11.48 ± 0.07,3.27 ± 0.89,5.6483 ± 0.0048
MIDTTLPLTDIHRHLDGNIRPQTILELGRQYNISLPAQSLETLIPHVQVIANEPDLVSFLTKLDWGVKVLASLDACRRVAFENIEDAARHGLHYVELRFSPGYMAMAHQLPVAGVVEAVIDGVREGCRTFGVQAKLIGIMSRTFGEAACQQELEAFLAHRDQITALDLAGDELGFPGSLFLSHFNRARDAGWHITVHAGEAAGPESIWQAIRELGAERIGHGVKAIEDRALMDFLAEQQIGIESCLTSNIQTSTVAELAAHPLKTFLEHGIRASINTDDPGVQGVDIIHEYTVAAPAAGLSREQIRQAQINGLEMAFLSAEEKRALREKVAAK,5.4 ± 0.46,4.73 ± 0.99,4.41 ± 0.094,5.25 ± 0.55,4.49 ± 0.38,–,10.6 ± 0.3,4.68 ± 0.59,7.15 ± 0.088,11 ± 0.3,2.88 ± 0.36,5.63 ± 0.2
MIDYEVLRFIWWLLVGVLLIGFAVTDGFDMGVGMLTRFLGRNDTERRIMINSIAPHWDGNQVWLITAGGALFAAWPMVYAAAFSGFYVAMILVLASLFFRPVGFDYRSKIEETRWRNMWDWGIFIGSFVPPLVIGVAFGNLLQGVPFNVDEYLRLYYTGNFFQLLNPFGLLAGVVSVGMIITQGATYLQMRTVGELHLRTRATAQVAALVTLVCFALAGVWVMYGIDGYVVKSTMDHYAASNPLNKEVVREAGAWLVNFNNTPILWAIPALGVVLPLLTILTARMDKAAWAFVFSSLTLACIILTAGIAMFPFVMPSSTMMNASLTMWDATSSQLTLNVMTWVAVVLVPIILLYTAWCYWKMFGRITKEDIERNTHSLY [P0ABK2],> 8,–,6.72,5.91,5.4,6.31,–,6.61,12.2 ± 1.9,12.9 ± 0.13,–,6.45 ± 0.17
MIDYKKNLLFILVFISGFILFTVYSYTAEKMIYNETCTANWVIFNDQGRANLTIDFMYNKKNKTGTVALSGTWQQGNRESKSIRRNIEYTWIENYDTAHLTSKKVNKFEIMDQVDDDRLAQLIPDFYVFPEKSVSYNILKQGKHAFILSIGNRAIMHCAR,–,–,–,–,–,–,> 16,–,–,–,–,–
MIEADRLISAGTTLPEDVADRAIRPKLLEEYVGQPQVRSQMEIFIKAAKLRGDALDHLLIFGPPGLGKTTLANIVANEMGVNLRTTSGPVLEKAGDLAAMLTNLEPHDVLFIDEIHRLSPVVEEVLYPAMEDYQLDIMIGEGPAARSIKIDLPPFTLIGATTRAGSLTSPLRDRFGIVQRLEFYQVPDLQYIVSRSARFMGLEMSDDGALEVARRARGTPRIANRLLRRVRDFAEVKHDGTISADIAAQALDMLNVDAEGFDYMDRKLLLAVIDKFFGGPVGLDNLAAAIGEERETIEDVLEPYLIQQGFLQRTPRGRMATTRAWNHFGITPPEMP [P0A812],–,3.14 ± 0.2,1.8 ± 0.077,2.7 ± 0.38,1.63 ± 0.079,3.53 ± 0.55,5.83 ± 0.95,2.08 ± 0.048,2.46 ± 0.039,4.66 ± 0.42,2.35 ± 0.51,3.14 ± 0.27
MIEFKNVSKHFGPTQVLHNIDLNIAQGEVVVIIGPSGSGKSTLLRCINKLEEITSGDLIVDGLKVNDPKVDERLIRQEAGMVFQQFYLFPHLTALENVMFGPLRVRGANKEEAEKLARELLAKVGLAERAHHYPSELSGGQQQRVAIARALAVKPKMMLFDEPTSALDPELRHEVLKVMQDLAEEGMTMVIVTHEIGFAEKVASRLIFIDKGRIAEDGNPQVLIKNPPSQRLQEFLQHVS,6.81 ± 0.9,5.7293 ± 0.0055,5.292 ± 0.039,5.12 ± 0.18,5.72 ± 0.6,4.88 ± 1.6,11.9 ± 0.78,6.79,11.5 ± 0.64,12.5 ± 0.99,2.93 ± 0.62,5.25
MIEFSHVSKLFGAQKAVNDLNLNFQEGSFSVLIGTSGSGKSTTLKMINRLVEHDSGEIRFAGEEIRSLPVLELRRRMGYAIQSIGLFPHWSVAQNIATVPQLQKWSRARIDDRIDELMALLGLESNLRERYPHQLSGGQQQRVGVARALAADPQVLLMDEPFGALDPVTRGALQQEMTRIHRLLGRTIVLVTHDIDEALRLAEHLVLMDHGEVVQQGNPLTMLTRPANDFVRQFFGRSELGVRLLSLRSVADYVRREERADGEALAEEMTLRDALSLFVARGCEVLPVVNMQGQPCGTLHFQDLLVEA,5.87 ± 0.78,5.31 ± 0.036,–,4.82,4.51 ± 0.06,4.96 ± 0.22,8.02 ± 0.57,5.05 ± 0.085,7.777 ± 0.046,8.835 ± 0.04,2.77 ± 0.11,4.85 ± 0.33
MIEIESRELADIPVLHAYPVGQKDTPLPCVIFYHGFTSSSLVYSYFAVALAQAGLRVIMPDAPDHGSRFSGDAARRLNQFWQILLQSMQEFTTLRAAIAEENWLLDDRLAVGGASMGAMTALGITARHPTVRCTASMMGSGYFTSLARSLFPPLIPETAAQQNEFNNIVAPLAEWEATNHLEQLSDRPLLLWHGLDDDVVPADESLRLQQALSETGRDKLLTCSWQPGVRHRITPEALDAAVTFFRQHL,4.25 ± 0.61,–,4.061 ± 0.029,4.32 ± 0.38,3.95 ± 0.12,5.72 ± 0.33,11 ± 0.45,4.11 ± 0.3,6.87 ± 0.64,12.2 ± 0.79,3.24 ± 0.097,5.95 ± 0.17

# Reference: the supplement of paper PMC11246515
